Source: US20260049138A1 (Chugai, published 2026)
Changes are numbered by the printed parent chain. In names and notes the source's numbering stands.

B1: GLS3000 S25M one-arm antibody (antibody, human IgG1, kappa, L234A L235A, N297A, name in Kabat numbering)
heavy: QVQLVESGGGVVQPGRSLRLSCAASGFTFSNAWMHWVRQAPGKGLEWVAQIKAKSNNYATYYAESVKGRFTISRDDSKNSLYLQMNSLKTEDTAVYYCRYVHYGAYYGVDAWGQGTTVTVSSASTKGPSVFPLAPSSKSTSGGTAALGCLVKDYFPEPVTVSWNSGALTSGVHTFPAVLQSSGLYSLSSVVTVPSSSLGTQTYICNVNHKPSNTKVDKKVEPKSCDKTHTCPPCPAPEAAGGPSVFLFPPKPKDTLMISRTPEVTCVVVDVSHEDPEVKFNWYVDGVEVHNAKTKPREEQYASTYRVVSVLTVLHQDWLNGKEYKCKVSNKALPAPIEKTISKAKGQPREPQVYTLPPSRCELTKNQVSLSCAVKGFYPSDIAVEWESNGQPENNYKTTPPVLDSDGSFFLVSKLTVDKSRWQQGNVFSCSVMHEALHNHYTQKSLSLSPDYKDDDDK
chain: EPKSSDKTHTCPPCPAPELLGGPSVFLFPPKPKDTLMISRTPEVTCVVVDVSHEDPEVKFNWYVDGVEVHNAKTKPREEQYNSTYRVVSVLTVLHQDWLNGKEYKCKVSNKALPAPIEKTISKAKGQPREPQVCTLPPSRDELTKNQVSLWCLVKGFYPSDIAVEWESNGQPENNYKTTPPVLDSDGSFFLYSKLTVDKSRWQQGNVFSCSVMHEALHNRYTQKSLSLSP
light: DIVMTQSPLSLPVTPGEPASISCRMSQSLVHSNRNTYLHWYQQKPGQAPRLLIYKVSNRFSGVPDRFSGSGSGTDFTLKISRVEAEDVGVYYCGQGTQVPYTFGQGTKLEIKRTVAAPSVFIFPPSDEQLKSGTASVVCLLNNFYPREAKVQWKVDNALQSGNSQESVTEQDSKDSTYSLSSTLTLSKADYEKHKVYACEVTHQGLSSPVTKSFNRGEC
B2: GLS3000 S27aI one-arm antibody (antibody, human IgG1, kappa, L234A L235A, N297A, name in Kabat numbering)
heavy: B1 heavy
chain: B1 chain
light: B1 light with M25S, S28I
B3: GLS3000 S27eH one-arm antibody (antibody, human IgG1, kappa, L234A L235A, N297A, name in Kabat numbering)
heavy: B1 heavy
chain: B1 chain
light: B1 light with M25S, S32H
B4: GLS3000 S27aP one-arm antibody (antibody, human IgG1, kappa, L234A L235A, N297A, name in Kabat numbering)
heavy: B1 heavy
chain: B1 chain
light: B1 light with M25S, S28P
B5: GLS3000 S27eF one-arm antibody (antibody, human IgG1, kappa, L234A L235A, N297A, name in Kabat numbering)
heavy: B1 heavy
chain: B1 chain
light: B1 light with M25S, S32F
B6: GLS3000 S27aN one-arm antibody (antibody, human IgG1, kappa, L234A L235A, N297A, name in Kabat numbering)
heavy: B1 heavy
chain: B1 chain
light: B1 light with M25S, S28N
B7: GLS3000 S27aE one-arm antibody (antibody, human IgG1, kappa, L234A L235A, N297A, name in Kabat numbering)
heavy: B1 heavy
chain: B1 chain
light: B1 light with M25S, S28E
B8: GLS3000 S26E one-arm antibody (antibody, human IgG1, kappa, L234A L235A, N297A, name in Kabat numbering)
heavy: B1 heavy
chain: B1 chain
light: B1 light with M25S, S26E
B9: GLS3000 S25P one-arm antibody (antibody, human IgG1, kappa, L234A L235A, N297A, name in Kabat numbering)
heavy: B1 heavy
chain: B1 chain
light: B1 light with M25P
B10: GLS3000 S27aD one-arm antibody (antibody, human IgG1, kappa, L234A L235A, N297A, name in Kabat numbering)
heavy: B1 heavy
chain: B1 chain
light: B1 light with M25S, S28D
B11: GLS3000 S27eE one-arm antibody (antibody, human IgG1, kappa, L234A L235A, N297A, name in Kabat numbering)
heavy: B1 heavy
chain: B1 chain
light: B1 light with M25S, S32E
B12: GLS3000 S26D one-arm antibody (antibody, human IgG1, kappa, L234A L235A, N297A, name in Kabat numbering)
heavy: B1 heavy
chain: B1 chain
light: B1 light with M25S, S26D
B13: GLS3000 S27eG one-arm antibody (antibody, human IgG1, kappa, L234A L235A, N297A, name in Kabat numbering)
heavy: B1 heavy
chain: B1 chain
light: B1 light with M25S, S32G
B14: GLS3000 S27eI one-arm antibody (antibody, human IgG1, kappa, L234A L235A, N297A, name in Kabat numbering)
heavy: B1 heavy
chain: B1 chain
light: B1 light with M25S, S32I
B15: GLS3000 S27eD one-arm antibody (antibody, human IgG1, kappa, L234A L235A, N297A, name in Kabat numbering)
heavy: B1 heavy
chain: B1 chain
light: B1 light with M25S, S32D
B16: GLS3000 S27aG one-arm antibody (antibody, human IgG1, kappa, L234A L235A, N297A, name in Kabat numbering)
heavy: B1 heavy
chain: B1 chain
light: B1 light with M25S, S28G
B17: GLS3000 S27eK one-arm antibody (antibody, human IgG1, kappa, L234A L235A, N297A, name in Kabat numbering)
heavy: B1 heavy
chain: B1 chain
light: B1 light with M25S, S32K
B18: GLS3000 S27aY one-arm antibody (antibody, human IgG1, kappa, L234A L235A, N297A, name in Kabat numbering)
heavy: B1 heavy
chain: B1 chain
light: B1 light with M25S, S28Y
B19: GLS3000 S26P one-arm antibody (antibody, human IgG1, kappa, L234A L235A, N297A, name in Kabat numbering)
heavy: B1 heavy
chain: B1 chain
light: B1 light with M25S, S26P
B20: GLS3000 S25T one-arm antibody (antibody, human IgG1, kappa, L234A L235A, N297A, name in Kabat numbering)
heavy: B1 heavy
chain: B1 chain
light: B1 light with M25T
B21: GLS3000 S25V one-arm antibody (antibody, human IgG1, kappa, L234A L235A, N297A, name in Kabat numbering)
heavy: B1 heavy
chain: B1 chain
light: B1 light with M25V
B22: GLS3000 S27eA one-arm antibody (antibody, human IgG1, kappa, L234A L235A, N297A, name in Kabat numbering)
heavy: B1 heavy
chain: B1 chain
light: B1 light with M25S, S32A

Molecular target: T1, CD3ε homodimer protein (human, UniProt P07766 23-126, limits assumed)
T1 construct: also called CD3 (CD3ε)
T1 sequence (P07766 23-126 limits assumed): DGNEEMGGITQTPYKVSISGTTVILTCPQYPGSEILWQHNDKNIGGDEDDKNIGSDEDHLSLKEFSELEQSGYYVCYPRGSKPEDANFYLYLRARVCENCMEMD
Assay: SPR Biacore T200, CD3ε homodimer on chip;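 note: Light-chain single-residue variant antibodies injected over amine-coupled CD3ε homodimer on a CM4 chip at 25 °C, bound amount divided by that of the GLS3000-containing antibody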

Binder | ratio of amount bound vs unaltered GLS3000
B1 | 0.31
B2 | 1
B3 | 1.23
B4 | 0.99
B5 | 1.32
B6 | 1.1
B7 | 0.81
B8 | 0.74
B9 | 1.01
B10 | 0.79
B11 | 0.76
B12 | 0.86
B13 | 1.04
B14 | 1.07
B15 | 0.69
B16 | 1.03
B17 | 1.59
B18 | 1.1
B19 | 0.78
B20 | 0.83
B21 | 0.73
B22 | 1.03
